The text below walks through data of patent US20170056473A1 (published 2017).

Holding throughout (experiment): cytokine release
For experiment [1], the target named is T1, EBV LMP1; LMP1*92 peptide on HLA-A*02:01 (human).
T1 peptide: LLLIALWNL

Experiment [2] addresses T2, EBV LMP1; LMP1*32 peptide on HLA-A*02:01 (human).
T2 peptide: LLLALLFWL

The target of experiment [3] is T3, EBV LMP1; LMP1*125 peptide on HLA-A*02:01 (human).
T3 peptide: YLLEMLWRL

In experiment [4] the target is T4, EBV LMP1; printed as LMP1*125 (the same label as …) peptide on HLA-A*02:01 (human).
T4 peptide: YLQQNWWTL

In experiment [5] the target is T5, EBV LMP1; LMP1*167 peptide on HLA-A*02:01 (human).
T5 peptide: LLVDLLWLL

In experiment [6] the target is T6, EBV LMP1; LMP1*173 peptide on HLA-A*02:01 (human).
T6 peptide: WLLLFLAIL

B1: LMP1*166 S4-12 TCR (TCR, V domains shown)
Valpha: GEQVEQRPPHLSVREGDSAVIICTYTDPNSYYFFWYKQEPGAGLQLLMKVFSSTEINEGQGFTVLLNKKDKQLSLNLTAAHPGDSAVYFCAVSGTGGYKVVFGSGTRLLVSP
Vbeta: NSKVIQTPRYLVKGQGQKAKMRCIPEKGHPVVFWYQQNKNNEFKFLINFQNQEVLQQIDMTEKRFSAECPSNSPCSLEIQSSEAGDSALYLCASNQLGSSYEQYFGPGTRLTVL
On to B1, for which the binding result in experiment [1] is “no recognition”; in experiment [2], “no recognition”; in experiment [3], “no recognition”; in experiment [4], “no recognition”; in experiment [5], “recognises”; in experiment [6] it was “no recognition”.
